Measured values from patent publication US20100061996A1 (Genentech, published 2010).

Experiments:
[1] = target: T1, soluble His-tagged hepsin comprising the entire extracellular domain of human hepsin (Arg45-Leu417) (human, UniProt P05981 45-417); experiment: enzyme inhibition, 0.5 nM hepsin, chromogenic substrate S2366; apparent Ki (Ki*) from tight-binding fit
T1 construct: range 45-417; also called soluble hepsin; recombinant soluble hepsin; not shown: His tag
Procedure: (§1) After substrate addition, the linear rates of the increase in absorbance at 405 nm was measured on a kinetic microplate reader (Molecular Devices, Sunnyvale, Calif.).

[2] = target: T2, matriptase protease domain (UniProt Q9Y5Y6 615-855, limits assumed); experiment: enzyme inhibition, 0.5 nM matriptase, chromogenic substrate S2765; apparent Ki (Ki*) from tight-binding fit
T2 construct: domain: protease domain
T2 sequence (looked up): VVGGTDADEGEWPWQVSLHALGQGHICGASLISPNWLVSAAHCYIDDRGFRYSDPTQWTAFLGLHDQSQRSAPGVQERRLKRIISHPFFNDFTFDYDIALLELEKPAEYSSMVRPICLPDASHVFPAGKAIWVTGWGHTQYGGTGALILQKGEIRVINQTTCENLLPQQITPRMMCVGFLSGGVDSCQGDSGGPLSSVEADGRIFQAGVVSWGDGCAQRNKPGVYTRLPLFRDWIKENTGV
Procedure: as §1

T1 sequence (P05981 45-417 limits assumed): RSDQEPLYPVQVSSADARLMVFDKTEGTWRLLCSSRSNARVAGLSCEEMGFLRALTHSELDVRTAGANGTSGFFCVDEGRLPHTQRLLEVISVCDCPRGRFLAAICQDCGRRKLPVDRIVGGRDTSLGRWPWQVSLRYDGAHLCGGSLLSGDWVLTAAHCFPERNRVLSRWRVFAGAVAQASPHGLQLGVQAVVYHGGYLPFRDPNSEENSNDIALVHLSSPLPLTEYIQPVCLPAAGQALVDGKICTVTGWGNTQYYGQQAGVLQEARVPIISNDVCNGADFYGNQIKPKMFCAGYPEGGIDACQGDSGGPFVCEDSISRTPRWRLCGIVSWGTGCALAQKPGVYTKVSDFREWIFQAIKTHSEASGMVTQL

B1: soluble HAI-2 (hepatocyte growth factor activator inhibitor-2) (other, UniProt O43291 28-197, looked up)
chain: ADRERSIHDFCLVSKVVGRCRASMPRWWYNVTDGSCQLFVYGGCDGNSNNYLTKEECLKKCATVTENATGDLATSRNAADSSVPSAPRRQDSEDHSSDMFNYEEYCTANAVTGPCRASFPRWYFDVERNSCNNFIYGGCRGNKNSYRSEEACMLRCFRQQENPPLPLGSK
Question: For B1, which Ki [1] is on record?
Answer: 260 pM

Question: And the Ki [2]?
Answer: 850 pM
